According to article PMC9352680, “A comprehensive thermodynamic model for RNA binding by the Saccharomyces cerevisiae Pumilio protein PUF4”:
Substitutions are numbered along the chain they refer to. Numbers in names are those of the source.

T1: PUF4 RNA-binding domain (Saccharomyces cerevisiae, UniProt P25339 537-888)
T1 sequence: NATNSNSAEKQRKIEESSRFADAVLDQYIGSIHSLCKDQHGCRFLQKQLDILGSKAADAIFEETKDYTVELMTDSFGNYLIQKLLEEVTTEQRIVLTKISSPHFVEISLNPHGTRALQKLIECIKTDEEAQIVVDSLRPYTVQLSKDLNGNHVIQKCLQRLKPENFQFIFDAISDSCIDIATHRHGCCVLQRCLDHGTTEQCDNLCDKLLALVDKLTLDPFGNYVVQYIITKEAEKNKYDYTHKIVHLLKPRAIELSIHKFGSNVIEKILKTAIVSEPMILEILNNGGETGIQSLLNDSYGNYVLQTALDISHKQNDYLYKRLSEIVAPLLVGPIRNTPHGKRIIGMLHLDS

B1: Ie_S2_P4E.1_K4.1_C4.1_H4.1_A4.1_F4.1_[+8C]_T4.1 (ssRNA)
RNA: UUUGAUUAAUAUGAUAUCGUUCUUUCUUGUAUAUUCAUUCUUUCUCGAUAUCAUAUUAAUCUUU
B2: Ie_S2_P4E.1_K4.1_C4.1_H4.1_A4.1_F4.1_[+9C]_T4.1 (ssRNA)
RNA: B1 RNA with C36A, A37C
B3: Ie_S2_P4E.1_K4.1_C4.1_H4.1_A4.1_F4.1_[+9T]_T4.1 (ssRNA)
RNA: B1 RNA with C36A, A37U
B4: Ic_S2_P3E.1_K3.1_C3.1_H3.1_A3.1_[A6C]_F3.1_[A8T]_T3.1 (ssRNA)
RNA: UUUGAUUAAUAUGAUAUCGUUCUUUCUUGUAUCUUUUCUUUCUCGAUAUCAUAUUAAUCUUU
B5: Ib_S2_P3E.1_K3.1_C3.1_H3.1_A3.1_[A6T]_F3.1_[A8T]_T3.1 (ssRNA)
RNA: B4 RNA with C33U
B6: Ib_S2_P3E.1_K3.1_C3.1_H3.1_[T1G]_[G2T]_A3.1_F3.1_T3.1 (ssRNA)
RNA: B4 RNA with U28G, G29U, C33A, U35A
B7: Ib_S2_P3E.1_K3.1_C3.1_H3.1_[T1G]_[G2C]_A3.1_F3.1_T3.1 (ssRNA)
RNA: B4 RNA with U28G, G29C, C33A, U35A
B8: Ia_S2_P3E.1_K3.1_C3.1_H3.1_[A4C]_A3.1_F3.1_T3.1 (ssRNA)
RNA: B4 RNA with A31C, C33A, U35A
B9: Ib_S2_P3E.1_K3.1_C3.1_H3.1_[T1C]_[G2C]_A3.1_F3.1_T3.1 (ssRNA)
RNA: B4 RNA with U28C, G29C, C33A, U35A
B10: Ie_S2_P4E.1_K4.1_C4.1_H4.1_A4.1_[+7CC]_F4.1_T4.1 (ssRNA)
RNA: UUUGAUUAAUAUGAUAUCGUUCUUUCUUGUAUAUCCUAUUCUUUCUCGAUAUCAUAUUAAUCUUU
B11: Ie_S2_P4E.1_K4.1_C4.1_H4.1_A4.1_F4.1_[+9CC]_T4.1 (ssRNA)
RNA: B10 RNA with C35U, C36A, U37C, A38C
B12: Ie_S2_P4E.1_K4.1_C4.1_H4.1_A4.1_F4.1_[+8TC]_T4.1 (ssRNA)
RNA: B10 RNA with C35U, C36U, U37C
B13: Ie_S2_P4E.1_K4.1_C4.1_H4.1_A4.1_F4.1_[+9TC]_T4.1 (ssRNA)
RNA: B10 RNA with C35U, C36A, A38C
B14: Ie_S2_P4E.1_K4.1_C4.1_H4.1_A4.1_F4.1_[+8CT]_T4.1 (ssRNA)
RNA: B10 RNA with C35U
B15: Ie_S2_P4E.1_K4.1_C4.1_H4.1_A4.1_F4.1_[+8CC]_T4.1 (ssRNA)
RNA: B10 RNA with C35U, U37C
B16: Ie_S2_P4E.1_K4.1_C4.1_H4.1_A4.1_[+7CCC]_F4.1_T4.1 (ssRNA)
RNA: UUUGAUUAAUAUGAUAUCGUUCUUUCUUGUAUAUCCCUAUUCUUUCUCGAUAUCAUAUUAAUCUUU
B17: Ie_S2_P4E.1_K4.1_C4.1_H4.1_A4.1_F4.1_[+8TCC]_T4.1 (ssRNA)
RNA: B16 RNA with C35U, C36U, U38C
B18: Ie_S2_P4E.1_K4.1_C4.1_H4.1_A4.1_F4.1_[+9TTC]_T4.1 (ssRNA)
RNA: B16 RNA with C35U, C36A, C37U, A39C
B19: Ie_S2_P4E.1_K4.1_C4.1_H4.1_A4.1_F4.1_[+8CCT]_T4.1 (ssRNA)
RNA: B16 RNA with C35U
B20: Ie_S2_P4E.1_K4.1_C4.1_H4.1_A4.1_F4.1_[+9CCC]_T4.1 (ssRNA)
RNA: B16 RNA with C35U, C36A, U38C, A39C
B21: Ie_S2_P4E.1_K4.1_C4.1_H4.1_A4.1_F4.1_[+9TTT]_T4.1 (ssRNA)
RNA: B16 RNA with C35U, C36A, C37U, A39U
B22: Ie_S2_P4E.1_K4.1_C4.1_H4.1_A4.1_F4.1_[+8CTC]_T4.1 (ssRNA)
RNA: B16 RNA with C35U, C37U, U38C
B23: Ie_S2_P5E.1_K5.1_C5.1_H5.1_[+1CC]_A5.1_F5.1_T5.1 (ssRNA)
RNA: B16 RNA with G29C, U30C, A31G, C35U, C36A, C37U
B24: Ie_S2_P4E.1_K4.1_C4.1_H4.1_A4.1_[+7CTC]_F4.1_T4.1 (ssRNA)
RNA: B16 RNA with C36U
B25: Ie_S2_P4E.1_K4.1_C4.1_H4.1_A4.1_[+6CTCTC]_F4.1_T4.1 (ssRNA)
RNA: UUUGAUUAAUAUGAUAUCGUUCUUUCUUGUAUACUCUCUUAUUCUUUCUCGAUAUCAUAUUAAUCUUU
B26: Ie_S2_P5E.1_K5.1_C5.1_H5.1_[+1CTCT]_A5.1_F5.1_T5.1 (ssRNA)
RNA: B25 RNA with G29C, A31C, A33G, C34U, U35A, C36U, C38A
B27: Ie_S2_P4E.1_K4.1_C4.1_H4.1_A4.1_F4.1_[+8TCTCT]_T4.1 (ssRNA)
RNA: B25 RNA with C34U, C36U, U37C, C38U, U39C
B28: Ie_S2_P4E.1_K4.1_C4.1_H4.1_A4.1_[+6CCCTT]_F4.1_T4.1 (ssRNA)
RNA: B25 RNA with U35C, C38U
B29: Ie_S2_P4E.1_K4.1_C4.1_H4.1_A4.1_F4.1_[+8TTCCT]_T4.1 (ssRNA)
RNA: B25 RNA with C34U, C36U, U39C
B30: Ie_S2_P4E.1_K4.1_C4.1_H4.1_A4.1_F4.1_[+9TCTCT]_T4.1 (ssRNA)
RNA: B25 RNA with C34U, C36A, U40C, A41U
B31: Ie_S2_P4E.1_K4.1_C4.1_H4.1_A4.1_F4.1_[+9CTCTC]_T4.1 (ssRNA)
RNA: B25 RNA with C34U, C36A, U37C, C38U, U39C, A41C
B32: Ie_S2_P4E.1_K4.1_C4.1_H4.1_A4.1_F4.1_[+9TTCCT]_T4.1 (ssRNA)
RNA: B25 RNA with C34U, C36A, C38U, U39C, U40C, A41U
B33: Ie_S2_P4E.1_K4.1_C4.1_H4.1_A4.1_F4.1_[+8CCTCT]_T4.1 (ssRNA)
RNA: B25 RNA with C34U, U37C, C38U, U39C
B34: Ie_S2_P4E.1_K4.1_C4.1_H4.1_A4.1_F4.1_[+9CCTCT]_T4.1 (ssRNA)
RNA: B25 RNA with C34U, C36A, U37C, U40C, A41U
B35: Ie_S2_P4E.1_K4.1_C4.1_H4.1_A4.1_[+7CTCTC]_F4.1_T4.1 (ssRNA)
RNA: B25 RNA with C34U, U35C, C36U, U37C, C38U, U39C
B36: Ie_S2_P4E.1_K4.1_C4.1_H4.1_A4.1_F4.1_[+9CCCTT]_T4.1 (ssRNA)
RNA: B25 RNA with C34U, C36A, U37C, U39C, A41U
B37: Ie_S2_P4E.1_K4.1_C4.1_H4.1_A4.1_[+6CCTC]_F4.1_T4.1 (ssRNA)
RNA: UUUGAUUAAUAUGAUAUCGUUCUUUCUUGUAUACCUCUUAUUCUUUCUCGAUAUCAUAUUAAUCUUU
B38: Ie_S2_P4E.1_K4.1_C4.1_H4.1_A4.1_[+6CCCT]_F4.1_T4.1 (ssRNA)
RNA: B37 RNA with U36C, C37U
B39: Ie_S2_P5E.1_K5.1_C5.1_H5.1_[+1TTT]_A5.1_F5.1_T5.1 (ssRNA)
RNA: B37 RNA with G29U, A31U, U32G, A33U, C34A, C35U, C37A
B40: Ie_S2_P4E.1_K4.1_C4.1_H4.1_A4.1_F4.1_[+8CCCT]_T4.1 (ssRNA)
RNA: B37 RNA with C34U, C35U, U36C, U38C
B41: Ie_S2_P4E.1_K4.1_C4.1_H4.1_A4.1_F4.1_[+8CCTC]_T4.1 (ssRNA)
RNA: B37 RNA with C34U, C35U, U36C, U39C
B42: Ie_S2_P5E.1_K5.1_C5.1_H5.1_[+1CTT]_A5.1_F5.1_T5.1 (ssRNA)
RNA: B37 RNA with G29C, A31U, U32G, A33U, C34A, C35U, C37A
B43: Ie_S2_P4E.1_K4.1_C4.1_H4.1_A4.1_[+7CCCT]_F4.1_T4.1 (ssRNA)
RNA: B37 RNA with C34U, U36C
B44: Ie_S2_P5E.1_K5.1_C5.1_H5.1_[+1TTC]_A5.1_F5.1_T5.1 (ssRNA)
RNA: B37 RNA with G29U, A31C, U32G, A33U, C34A, C35U, C37A
B45: Ie_S2_P5E.1_K5.1_C5.1_H5.1_[+1TCC]_A5.1_F5.1_T5.1 (ssRNA)
RNA: B37 RNA with G29U, U30C, A31C, U32G, A33U, C34A, C35U, C37A
B46: Ie_S2_P5E.1_K5.1_C5.1_H5.1_[+1CTC]_A5.1_F5.1_T5.1 (ssRNA)
RNA: B37 RNA with G29C, A31C, U32G, A33U, C34A, C35U, C37A
B47: Ie_S2_P4E.1_K4.1_C4.1_H4.1_A4.1_F4.1_[+9TCTC]_T4.1 (ssRNA)
RNA: B37 RNA with C34U, C35U, U36A, C37U, U38C, A40C
B48: Ie_S2_P5E.1_K5.1_C5.1_H5.1_[+1CCC]_A5.1_F5.1_T5.1 (ssRNA)
RNA: B37 RNA with G29C, U30C, A31C, U32G, A33U, C34A, C35U, C37A
B49: Ie_S2_P4E.1_K4.1_C4.1_H4.1_A4.1_F4.1_[+8CTCT]_T4.1 (ssRNA)
RNA: B37 RNA with C34U, C35U, U36C, C37U, U38C
B50: Ie_S2_P5E.1_K5.1_C5.1_H5.1_[+1TCT]_A5.1_F5.1_T5.1 (ssRNA)
RNA: B37 RNA with G29U, U30C, A31U, U32G, A33U, C34A, C35U, C37A
B51: Ie_S2_P4E.1_K4.1_C4.1_H4.1_A4.1_[+7CCTC]_F4.1_T4.1 (ssRNA)
RNA: B37 RNA with C34U, U36C, C37U, U38C

What follows are binders tested against T1, PUF4 RNA-binding domain (assay: Mg; RNA-MaP; 20 mM Na-HEPES pH 7.4, 30 mM KOAc, 0.75 mM MgCl2, 0.1% Tween-20, 5% glycerol, 0.1 mg/mL BSA, 2 mM DTT; 25 C; 0.0125-409.6 nM protein). Conditions: tags: N-His6-TEV cleaved; C-SNAP kept, Cy3B-labelled; label: tethered on chip by stalled RNA polymerase.

Binder	Kd [nM]
B1	6.81
B2	1.33
B3	0.265
B4	9.3
B5	10.5
B6	15.6
B7	798
B8	184
B9	495
B10	11.7
B11	0.543
B12	6.93
B13	0.411
B14	3.57
B15	5.04
B16	13.5
B17	3.54
B18	0.446
B19	3.9
B20	0.512
B21	0.208
B22	5.23
B23	565
B24	8.21
B25	6.56
B26	1.25

Binder	Kd [nM]
B27	3.78
B28	20.8
B29	3.81
B30	0.382
B31	0.532
B32	0.282
B33	4.43
B34	0.733
B35	9
B36	0.523
B37	14.8
B38	26.5
B39	1.6
B40	3.71
B41	4.56
B42	1.16
B43	10.1
B44	374
B45	198
B46	355
B47	0.324
B48	178
B49	4.74
B50	1.14
B51	12.2
